Experimental data reported in patent US20230080842A1 (WUHAN YZY BIOPHARMA, published 2023).

B1: Y316-A1 (bispecific antibody)
chain: EVQLVESGGGLVQPGGSLRLSCAASGFDFSRYWMSWVRQAPGKGLEWIGEINPDSSTINYAPSLKDKFIISRDNAKNSLYLQMNSLRAEDTAVYYCARPDGNYWYFDVWGQGTLVTVSSGGGGSGGGGSGGGGSDIQMTQSPSSLSASVGDRVTITCKASQDVGIAVAWYQQKPGKVPKLLIYWASTRHTGVPDRFSGSGSGTDFTLTISSLQPEDVATYYCQQYSSYPYTFGQGTKVEIKGGGGSASEVQLVESGGGVVRPGGSLRLSCAASGFTFDDYGMSWVRQAPGKGLEWVSGINWNGGSTGYADSVKGRFTISRDNAKNSLYLQMNSLRAEDTAVYYCARGRSLLFDYWGQGTLVTVSRGGGGSGGGGSGGGGSSELTQDPAVSVALGQTVRITCQGDSLRSYYASWYQQKPGQAPVLVIYGKNNRPSGIPDRFSGSSSGNTASLTITGAQAEDEADYYCNSRDSSGNHVVFGGGTKLTVLDKTHTCPPCPAPPVAGPSVFLFPPKPKDTLMISRTPEVTCVVVDVSHEAPEVQFNWYVDGVEVHNAKTKPREEQFNSTFRVVSVLTVVHQDWLNGKEYKCKVSNKGLPAPIEKTISKTKGQPREPQVYTLPPSRDELTKNQVSLTCLVKGFYPSDIAVEWESNGQPENNYKTTPPVLDSDGSFFLYSKLTVDKSRWQQGNVFSCSVMHEALHNHYTQKSLSLSPGK
notes: structure 3 Tandem-ScFv-Fc, A series, two identical fusion peptides; scFv Elotuzumab (anti-SLAMF7), scFv NM3E2 (anti-CD16)
B2: Y216-A1 (bispecific antibody, human IgG1, kappa)
light: DIQMTQSPSSLSASVGDRVTITCKASQDVGIAVAWYQQKPGKVPKLLIYWASTRHTGVPDRFSGSGSGTDFTLTISSLQPEDVATYYCQQYSSYPYTFGQGTKVEIKRTVAAPSVFIFPPSDEQLKSGTASVVCLLNNFYPREAKVQWKVDNALQSGNSQESVTEQDSKDSTYSLSSTLTLSKADYEKHKVYACEVTHQGLSSPVTKSFNRGEC
heavy: EVQLVESGGGLVQPGGSLRLSCAASGFDFSRYWMSWVRQAPGKGLEWIGEINPDSSTINYAPSLKDKFIISRDNAKNSLYLQMNSLRAEDTAVYYCARPDGNYWYFDVWGQGTLVTVSSASTKGPSVFPLAPSSKSTSGGTAALGCLVKDYFPEPVTVSWNSGALTSGVHTFPAVLQSSGLYSLSSVVTVPSSSLGTQTYICNVNHKPSNTKVDKKVEPKSCDKTHTCPPCPAPPVAGPSVFLFPPKPKDTLMISRTPEVTCVVVDVSHEAPEVQFNWYVDGVEVHNAKTKPREEQFNSTFRVVSVLTVVHQDWLNGKEYKCKVSNKGLPAPIEKTISKTKGQPREPQVYTLPPSRDELTKNQVSLTCLVKGFYPSDIAVEWESNGQPENNYKTTPPVLDSDGSFFLYSKLTVDKSRWQQGNVFSCSVMHEALHNHYTQKSLSLSPGAGGGGSGGGGSGGGGSGEVQLVESGGGVVRPGGSLRLSCAASGFTFDDYGMSWVRQAPGKGLEWVSGINWNGGSTGYADSVKGRFTISRDNAKNSLYLQMNSLRAEDTAVYYCARGRSLLFDYWGQGTLVTVSRGGGGSGGGGSGGGGSSELTQDPAVSVALGQTVRITCQGDSLRSYYASWYQQKPGQAPVLVIYGKNNRPSGIPDRFSGSSSGNTASLTITGAQAEDEADYYCNSRDSSGNHVVFGGGTKLTVL
notes: structure 2 IgG(H)-ScFv, A series; IgG Elotuzumab (anti-SLAMF7), scFv NM3E2 (anti-CD16)
B3: Y216-B1 (bispecific antibody, human IgG1, kappa)
light: B2 light
heavy: EVQLVESGGGLVQPGGSLRLSCAASGFDFSRYWMSWVRQAPGKGLEWIGEINPDSSTINYAPSLKDKFIISRDNAKNSLYLQMNSLRAEDTAVYYCARPDGNYWYFDVWGQGTLVTVSSASTKGPSVFPLAPSSKSTSGGTAALGCLVKDYFPEPVTVSWNSGALTSGVHTFPAVLQSSGLYSLSSVVTVPSSSLGTQTYICNVNHKPSNTKVDKKVEPKSCDKTHTCPPCPAPPVAGPSVFLFPPKPKDTLMISRTPEVTCVVVDVSHEAPEVQFNWYVDGVEVHNAKTKPREEQFNSTFRVVSVLTVVHQDWLNGKEYKCKVSNKGLPAPIEKTISKTKGQPREPQVYTLPPSRDELTKNQVSLTCLVKGFYPSDIAVEWESNGQPENNYKTTPPVLDSDGSFFLYSKLTVDKSRWQQGNVFSCSVMHEALHNHYTQKSLSLSPGAGGGGSGGGGSGGGGSGSELTQDPAVSVALGQTVRITCQGDSLRSYYASWYQQKPGQAPVLVIYGKNNRPSGIPDRFSGSSSGNTASLTITGAQAEDEADYYCNSRDSSGNHVVFGGGTKLTVLGGGGSGGGGSGGGGSEVQLVESGGGVVRPGGSLRLSCAASGFTFDDYGMSWVRQAPGKGLEWVSGINWNGGSTGYADSVKGRFTISRDNAKNSLYLQMNSLRAEDTAVYYCARGRSLLFDYWGQGTLVTVSR
notes: structure 2 IgG(H)-ScFv, B series; IgG Elotuzumab (anti-SLAMF7), scFv NM3E2 (anti-CD16)
B4: ElotuzumAb (antibody, human IgG1, kappa, V domains shown)
VH: EVQLVESGGGLVQPGGSLRLSCAASGFDFSRYWMSWVRQAPGKGLEWIGEINPDSSTINYAPSLKDKFIISRDNAKNSLYLQMNSLRAEDTAVYYCARPDGNYWYFDVWGQGTLVTVSS
VL: DIQMTQSPSSLSASVGDRVTITCKASQDVGIAVAWYQQKPGKVPKLLIYWASTRHTGVPDRFSGSGSGTDFTLTISSLQPEDVATYYCQQYSSYPYTFGQGTKVEIKR
notes: anti-SLAMF7 monoclonal antibody, human IgG1 constant domains, kappa
B5: Y416-B1 (bispecific antibody, human IgG1, kappa)
light: EVQLVESGGGLVQPGGSLRLSCAASGFDFSRYWMSWVRQAPGKGLEWIGEINPDSSTINYAPSLKDKFIISRDNAKNSLYLQMNSLRAEDTAVYYCARPDGNYWYFDVWGQGTLVTVSSGGGGSGGGGSGGGGSSELTQDPAVSVALGQTVRITCQGDSLRSYYASWYQQKPGQAPVLVIYGKNNRPSGIPDRFSGSSSGNTASLTITGAQAEDEADYYCNSRDSSGNHVVFGGGTKLTVLRTVAAPSVFIFPPSDEQLKSGTASVVCLLNNFYPREAKVQWKVDNALQSGNSQESVTEQDSKDSTYSLSSTLTLSKADYEKHKVYACEVTHQGLSSPVTKSFNRGEC
heavy: DIQMTQSPSSLSASVGDRVTITCKASQDVGIAVAWYQQKPGKVPKLLIYWASTRHTGVPDRFSGSGSGTDFTLTISSLQPEDVATYYCQQYSSYPYTFGQGTKVEIKGGGGSGGGGSGGGGSEVQLVESGGGVVRPGGSLRLSCAASGFTFDDYGMSWVRQAPGKGLEWVSGINWNGGSTGYADSVKGRFTISRDNAKNSLYLQMNSLRAEDTAVYYCARGRSLLFDYWGQGTLVTVSRASTKGPSVFPLAPSSKSTSGGTAALGCLVKDYFPEPVTVSWNSGALTSGVHTFPAVLQSSGLYSLSSVVTVPSSSLGTQTYICNVNHKPSNTKVDKKVEPKSCDKTHTCPPCPAPPVAGPSVFLFPPKPKDTLMISRTPEVTCVVVDVSHEAPEVQFNWYVDGVEVHNAKTKPREEQFNSTFRVVSVLTVVHQDWLNGKEYKCKVSNKGLPAPIEKTISKTKGQPREPQVYTLPPSRDELTKNQVSLTCLVKGFYPSDIAVEWESNGQPENNYKTTPPVLDSDGSFFLYSKLTVDKSRWQQGNVFSCSVMHEALHNHYTQKSLSLSPGK

Each binder was assayed against T1, Human SLAMF7 (human, UniProt Q9NQ25 23-226) (assay: ELISA, plate coated with His-tagged antigen).
T1 construct: also called SLAMF7 antigen; not shown: His tag

Binder	EC50 [nM]
B1	9.18
B2	0.715
B3	0.499
B4	0.628
B5	5.59
